The data set relates to T1, 7-nitrobenz-2-oxa-1,3-diazole (NBD)-NH-Ser-Phe-Arg4-Lys-amide 2.
T1 sequence: SFRRRRK

With recombinant human protein kinase C γ, the Km (Fluorescence assay) is 30 µM, the Km (Radioactive assay) turned out to be 5 µM, the kcat (Fluorescence assay) was determined as 3.17 s⁻¹ and the kcat (Radioactive assay) stood at 3.5 s⁻¹. In addition, the kcat/Km (Fluorescence assay) came to 105000 M⁻¹ s⁻¹ and the kcat/Km (Radioactive assay) is 700000 M⁻¹ s⁻¹.

The values above are taken from patent US20050054024.
